According to US20190055314A1 (ADAGENE, published 2019):

What was measured:
[1] = molecular target: T1, OX40 overexpressed on HEK293F cells (UniProt P43489 29-277, limits assumed); experiment: flow cytometry, HEK293F cells expressing the receptor
T1 construct: whole, on cells
T1 sequence (looked up): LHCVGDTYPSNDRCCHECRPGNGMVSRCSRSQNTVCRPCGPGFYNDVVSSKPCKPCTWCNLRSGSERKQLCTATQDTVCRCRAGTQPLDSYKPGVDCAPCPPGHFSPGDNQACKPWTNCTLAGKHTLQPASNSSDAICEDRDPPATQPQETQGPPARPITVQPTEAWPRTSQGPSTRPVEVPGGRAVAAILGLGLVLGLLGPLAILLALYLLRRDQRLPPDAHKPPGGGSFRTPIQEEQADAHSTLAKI

[2] = molecular target: T2, CD27 overexpressed on HEK293F cells (UniProt P26842 20-260, limits assumed); experiment: as above
T2 construct: whole, on cells
T2 sequence (looked up): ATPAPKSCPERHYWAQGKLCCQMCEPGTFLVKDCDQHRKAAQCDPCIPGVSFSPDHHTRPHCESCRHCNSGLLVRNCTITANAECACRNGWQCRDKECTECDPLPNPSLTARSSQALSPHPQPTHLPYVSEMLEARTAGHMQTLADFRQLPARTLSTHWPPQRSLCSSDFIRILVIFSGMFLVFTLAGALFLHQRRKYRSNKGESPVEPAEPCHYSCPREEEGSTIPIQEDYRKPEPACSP

[3] = molecular target: T3, CD40 overexpressed on HEK293F cells (UniProt P25942 21-277, limits assumed); experiment: as above
T3 construct: whole, on cells

[4] = molecular target: T4, GITR overexpressed on HEK293F cells (UniProt Q9Y5U5 26-241, limits assumed); experiment: as above
T4 construct: whole, on cells
T4 sequence (looked up): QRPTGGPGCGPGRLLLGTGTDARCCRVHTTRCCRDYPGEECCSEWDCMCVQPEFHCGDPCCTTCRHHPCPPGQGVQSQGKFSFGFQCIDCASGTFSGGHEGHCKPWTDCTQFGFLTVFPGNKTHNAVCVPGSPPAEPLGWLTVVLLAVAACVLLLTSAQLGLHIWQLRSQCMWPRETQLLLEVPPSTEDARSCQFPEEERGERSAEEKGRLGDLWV

CD95 = molecular target: T5, CD95; experiment: flow cytometry, HEK293F cells expressing the receptor [Cont.]
T5 chain: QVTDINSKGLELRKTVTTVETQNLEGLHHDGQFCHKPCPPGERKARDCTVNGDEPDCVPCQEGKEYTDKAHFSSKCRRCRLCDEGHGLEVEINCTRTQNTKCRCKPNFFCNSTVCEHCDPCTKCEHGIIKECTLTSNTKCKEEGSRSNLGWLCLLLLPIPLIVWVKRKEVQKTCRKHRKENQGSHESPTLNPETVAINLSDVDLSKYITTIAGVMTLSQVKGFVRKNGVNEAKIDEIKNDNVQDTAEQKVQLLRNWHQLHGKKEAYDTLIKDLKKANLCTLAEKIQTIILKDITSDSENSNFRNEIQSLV

T3 sequence (P25942 21-277 limits assumed): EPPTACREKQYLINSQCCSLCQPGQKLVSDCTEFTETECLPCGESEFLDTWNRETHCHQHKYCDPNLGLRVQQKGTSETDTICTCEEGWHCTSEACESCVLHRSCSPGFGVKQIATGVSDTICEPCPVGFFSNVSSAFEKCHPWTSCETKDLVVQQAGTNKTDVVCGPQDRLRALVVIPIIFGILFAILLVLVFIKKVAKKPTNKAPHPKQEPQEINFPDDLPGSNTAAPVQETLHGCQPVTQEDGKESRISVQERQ

B1: AG10058 (antibody, human IgG4 S228P, kappa, V domains shown)
VH: EVQLVESGGGLVQPGGSLRLSCAASGFSLSTSGVGVGWIRQAPGKGLEWLALIDWDDDKYYSPSLKSRLTISRDNSKNTLYLQLNSLRAEDTAVYYCARGGSDTVLGDWFAYWGQGTLVTVSS
VL: DIQLTQSPSSLSASVGDRVTITCRASQSVSPYLAWYQQKPGKAPKLLIYDASSLESGVPSRFSGSGSGTDFTLTISSLQPEDFATYYCQQGYSLWTFGQGTKVEIKR
Q: Does B1 bind [1]?
A: Result: no binding (tested: 100 nM (text paragraph 226))

Q: Does B1 bind [2]?
A: Result: no binding (tested: 100 nM (text paragraph 226))

Q: Does B1 bind [3]?
A: Result: no binding (tested: 100 nM (text paragraph 226))

Q: Does B1 bind [4]?
A: Result: no binding (tested: 100 nM (text paragraph 226))

Q: Does B1 bind (CD95)?
A: Result: no binding (tested: 100 nM (text paragraph 226))
